Laboratory results as given in patent publication US20220064275A1 (SCHOLAR ROCK, published 2022).

Key:
[1] = target: T1, murine LTBP3-proTGFβ1 complex (mouse, UniProt Q61810 41-1245; P04202 30-390, limits assumed); assay: MSD-SET, solution equilibrium titration; MSD-SET, Table 21, mouse complex
T1 construct: also called mLTBP3-proTGFβ1

[2] = target: T2, human LRRC33-proTGFβ1 complex (human, UniProt Q86YC3 19-650; P01137 30-390); assay: MSD-SET solution equilibrium titration; Ab6 titrated against biotinylated hLRRC33-proTGFβ1, readout % free antigen
T2 construct: also called hLRRC33-proTGFβ1; hLRRC33
T2 sequence (Q86YC3 other isoform, or with tags, fused parts or gaps limits assumed, chain 1 of 2): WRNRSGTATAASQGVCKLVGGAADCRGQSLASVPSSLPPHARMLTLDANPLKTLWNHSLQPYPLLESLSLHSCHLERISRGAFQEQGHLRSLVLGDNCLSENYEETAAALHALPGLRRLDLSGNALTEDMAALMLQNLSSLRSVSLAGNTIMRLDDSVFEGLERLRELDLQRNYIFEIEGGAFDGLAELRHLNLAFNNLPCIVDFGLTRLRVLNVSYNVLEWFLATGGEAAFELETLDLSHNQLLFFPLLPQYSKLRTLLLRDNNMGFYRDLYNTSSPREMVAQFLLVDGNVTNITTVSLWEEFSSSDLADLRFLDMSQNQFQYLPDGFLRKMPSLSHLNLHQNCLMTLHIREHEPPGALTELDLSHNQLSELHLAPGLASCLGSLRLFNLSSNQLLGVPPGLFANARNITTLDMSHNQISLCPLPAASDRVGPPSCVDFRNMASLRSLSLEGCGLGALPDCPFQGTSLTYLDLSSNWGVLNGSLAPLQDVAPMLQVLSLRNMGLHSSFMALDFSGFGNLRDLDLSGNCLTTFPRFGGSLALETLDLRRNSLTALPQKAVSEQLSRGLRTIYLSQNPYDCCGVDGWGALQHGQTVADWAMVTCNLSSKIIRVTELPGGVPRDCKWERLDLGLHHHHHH
T2 sequence (P01137 30-390 limits assumed, chain 2 of 2): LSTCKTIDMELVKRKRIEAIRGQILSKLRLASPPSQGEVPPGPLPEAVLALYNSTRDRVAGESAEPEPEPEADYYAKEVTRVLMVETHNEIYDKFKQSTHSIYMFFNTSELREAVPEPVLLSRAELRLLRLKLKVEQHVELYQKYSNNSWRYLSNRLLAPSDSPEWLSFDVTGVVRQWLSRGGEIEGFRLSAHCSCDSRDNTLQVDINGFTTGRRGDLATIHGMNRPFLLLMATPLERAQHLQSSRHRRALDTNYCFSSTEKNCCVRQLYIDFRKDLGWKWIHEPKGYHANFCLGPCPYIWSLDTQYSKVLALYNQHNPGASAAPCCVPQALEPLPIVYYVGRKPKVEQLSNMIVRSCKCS
Method: (§1) MSD-SET assays were performed to measure affinities of the antibodies at equilibrium. Briefly, each test antibody was diluted 3-5 fold and samples were mixed with biotinylated antigen in a 48-well dish. The SET samples were equilibrated for 20-24 hours at room temperature. Meanwhile, a capture plate was coated with IgG (20 nM) and incubated overnight at 4° C. or 30 minutes at room temperature, followed by a blocking step with 5% BSA. After the capture plate was washed three times, SET samples were added and incubated for 150 seconds. The plate was washed once to remove unbound complexes. 250 ng/ml SA-Sulfotag was added then washed 3 times. 2× Read Buffer was added, and signals from the labeled bound complexes were read with the use of QuickPlex™ SQ 120 instrument.
As an example, MSD standard plates (MSD) were coated with a 20 nM solution of monoclonal antibody in PBS for 30 min at room temperature or overnight at 4° C. […] After 20-24 hours of equilibration, the antibody-coated plate was blocked with Blocking Buffer A (MSD) for 30 minutes at room temperature and washed with wash buffer (PBS, 0.1% BSA, 0.05% Tween-20) before adding the equilibrated antibody-antigen complexes to the plate for exactly 2.5 minutes. […] After washing with wash buffer, plates were read in MSD read buffer (MSD) using the MESO QuickPlex SQ 120 (MSD). […]

[3] = target: T3, human LTBP3-proTGFβ1 complex (human, UniProt Q9NS15 866-1039); assay: MSD-SET, solution equilibrium titration
T3 construct: range 866-1039; also called hLTBP3-proTGFβ1; hLTBP3
T3 sequence (Q9NS15 866-1039 limits assumed, chain 1 of 2): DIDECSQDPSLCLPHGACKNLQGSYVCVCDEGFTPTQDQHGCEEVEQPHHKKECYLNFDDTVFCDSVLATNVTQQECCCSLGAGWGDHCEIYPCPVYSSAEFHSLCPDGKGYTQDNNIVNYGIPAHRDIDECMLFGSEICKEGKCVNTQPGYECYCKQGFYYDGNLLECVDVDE
T3 sequence (chain, as listed by the source limits assumed, chain 2 of 2): as the sequence (P01137 30-390 limits assumed, chain 2 of 2) above

[4] = target: T4, human LTBP1-proTGFβ1 complex (human, UniProt Q14766 873-1507); assay: MSD-SET, solution equilibrium titration
T4 construct: range 873-1507; biotinylated in Octet and MSD-SET; also called hLTBP1-proTGFβ1; hLTBP1
T4 sequence (Q14766 873-1507 limits assumed, chain 1 of 2): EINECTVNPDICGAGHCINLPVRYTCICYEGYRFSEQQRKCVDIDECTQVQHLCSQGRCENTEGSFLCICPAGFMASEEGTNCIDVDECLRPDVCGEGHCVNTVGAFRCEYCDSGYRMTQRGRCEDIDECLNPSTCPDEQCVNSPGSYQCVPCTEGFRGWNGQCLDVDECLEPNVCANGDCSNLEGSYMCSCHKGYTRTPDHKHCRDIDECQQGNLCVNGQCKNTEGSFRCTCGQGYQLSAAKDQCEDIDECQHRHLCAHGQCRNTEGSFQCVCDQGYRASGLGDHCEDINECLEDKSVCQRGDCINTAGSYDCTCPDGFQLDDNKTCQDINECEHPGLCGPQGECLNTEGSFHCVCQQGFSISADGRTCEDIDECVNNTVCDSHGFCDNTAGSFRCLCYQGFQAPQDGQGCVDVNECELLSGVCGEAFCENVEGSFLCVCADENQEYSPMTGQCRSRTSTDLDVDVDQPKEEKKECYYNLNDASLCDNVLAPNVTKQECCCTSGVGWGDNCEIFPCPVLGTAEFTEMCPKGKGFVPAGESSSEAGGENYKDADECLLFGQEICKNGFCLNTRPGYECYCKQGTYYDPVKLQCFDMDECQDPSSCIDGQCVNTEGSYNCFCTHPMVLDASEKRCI
T4 sequence (chain, as listed by the source limits assumed, chain 2 of 2): as the sequence (P01137 30-390 limits assumed, chain 2 of 2) above

[5] = target: T5, human GARP-proTGFβ1 complex (human, UniProt Q14392 20-627; P01137 30-390); assay: MSD-SET, solution equilibrium titration
T5 construct: also called hGARP-proTGFβ1; hGARP
T5 sequence (Q14392 20-627, chain 1 of 2): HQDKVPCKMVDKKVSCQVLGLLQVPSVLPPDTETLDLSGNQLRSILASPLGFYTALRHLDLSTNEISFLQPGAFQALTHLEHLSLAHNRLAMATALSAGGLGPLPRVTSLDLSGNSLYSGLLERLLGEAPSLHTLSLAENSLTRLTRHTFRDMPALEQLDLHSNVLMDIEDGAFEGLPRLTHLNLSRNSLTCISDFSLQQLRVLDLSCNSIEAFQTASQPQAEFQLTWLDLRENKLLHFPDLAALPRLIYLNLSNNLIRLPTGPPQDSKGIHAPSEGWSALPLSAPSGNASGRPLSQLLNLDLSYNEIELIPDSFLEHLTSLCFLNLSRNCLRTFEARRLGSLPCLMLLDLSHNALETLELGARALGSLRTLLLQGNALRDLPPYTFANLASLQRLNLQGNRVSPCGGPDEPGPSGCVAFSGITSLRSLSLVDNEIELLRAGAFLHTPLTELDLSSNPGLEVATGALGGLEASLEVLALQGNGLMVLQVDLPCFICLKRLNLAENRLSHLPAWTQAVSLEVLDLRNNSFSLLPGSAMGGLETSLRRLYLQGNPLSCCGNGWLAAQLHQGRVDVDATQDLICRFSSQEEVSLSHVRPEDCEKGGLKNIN
T5 sequence (P01137 30-390, chain 2 of 2): as the sequence (P01137 30-390 limits assumed, chain 2 of 2) above

[6] = target: T2, human LRRC33-proTGFβ1 complex; assay: MSD-SET, solution equilibrium titration
[7] = target: T6, murine GARP-proTGFβ1 complex (mouse, UniProt G3XA59 18-628; P04202 30-390); assay: MSD-SET, solution equilibrium titration
T6 construct: Soluble murine complex; also called mGARP-proTGFβ1
Method: as §1
(§2) As an example, MSD standard plates (MSD) were coated with a 20 nM solution of monoclonal antibody in PBS for 30 min at room temperature or overnight at 4° C. […] After 20-24 hours of equilibration, the antibody-coated plate was blocked with Blocking Buffer A (MSD) for 30 minutes at room temperature and washed with wash buffer (PBS, 0.1% BSA, 0.05% Tween-20) before adding the equilibrated antibody-antigen complexes to the plate for exactly 2.5 minutes. The plate was washed again with wash buffer before adding 250 ng/ml SULFO-TAG-labeled streptavidin secondary reagent (MSD) in PBS with 0.1% BSA. After washing with wash buffer, plates were read in MSD read buffer (MSD) using the MESO QuickPlex SQ 120 (MSD). The binding data were processed by nonlinear curve fitting in Prism 7 software (Graphpad) to calculate equilibrium binding KD values.

[8] = target: T3, human LTBP3-proTGFβ1 complex; assay: MSD-SET, solution equilibrium titration; remark: listed apart in the source
Method: as §1, §2

[9] = target: T7, cynomolgus LTBP1-proTGFβ1 complex (cynomolgus monkey); assay: MSD-SET, solution equilibrium titration
T7 construct: also called Cyno LTBP1-proTGFβ1
Method: as §1, §2

[10] = target: T4, human LTBP1-proTGFβ1 complex; assay: MSD-SET, solution equilibrium titration; remark: listed apart in the source
Method: as §1, §2

[11] = target: T5, human GARP-proTGFβ1 complex; assay: MSD-SET, solution equilibrium titration; remark: listed apart in the source
Method: as §1, §2

[12] = target: T2, human LRRC33-proTGFβ1 complex; assay: MSD-SET, solution equilibrium titration; remark: listed apart in the source
Method: as §1, §2

[13] = target: T8, murine LRRC33-proTGFβ1 complex (mouse, UniProt Q8BMT4 20-651, limits assumed); assay: MSD-SET, solution equilibrium titration
T8 construct: also called mLRRC33-proTGFβ1
Method: as §1, §2

[14] = target: rat LRRC33-proTGFβ1 complex (rat, UniProt Q5BK65 25-650; P17246 30-390); assay: MSD-SET, solution equilibrium titration
Method: as §1, §2

[15] = target: rat LTBP1-proTGFβ1 complex (rat, UniProt Q00918 339-1712; P17246 30-390); assay: MSD-SET, solution equilibrium titration
Method: as §1, §2

[16] = target: T9, murine LTBP1-proTGFβ1 complex (mouse, UniProt Q8CG19 339-1712; P04202 30-390, limits assumed); assay: MSD-SET, solution equilibrium titration
T9 construct: also called mLTBP1-proTGFβ1
Method: as §1, §2

[17] = target: T10, cynomolgus LRRC33-proTGFβ1 complex (cynomolgus monkey, UniProt A0A7N9CII2 32-663); assay: MSD-SET, solution equilibrium titration
T10 construct: also called Cyno LRRC33-proTGFβ1
Method: as §1, §2

[18] = target: hLRRC33-proTGFβ1 complex on cells (human, UniProt Q86YC3 19-692; P01137 30-390); assay: cell-based or functional assay
Sequence of hLRRC33-proTGFβ1 complex on cells (Q86YC3 19-692 limits assumed, chain 1 of 2): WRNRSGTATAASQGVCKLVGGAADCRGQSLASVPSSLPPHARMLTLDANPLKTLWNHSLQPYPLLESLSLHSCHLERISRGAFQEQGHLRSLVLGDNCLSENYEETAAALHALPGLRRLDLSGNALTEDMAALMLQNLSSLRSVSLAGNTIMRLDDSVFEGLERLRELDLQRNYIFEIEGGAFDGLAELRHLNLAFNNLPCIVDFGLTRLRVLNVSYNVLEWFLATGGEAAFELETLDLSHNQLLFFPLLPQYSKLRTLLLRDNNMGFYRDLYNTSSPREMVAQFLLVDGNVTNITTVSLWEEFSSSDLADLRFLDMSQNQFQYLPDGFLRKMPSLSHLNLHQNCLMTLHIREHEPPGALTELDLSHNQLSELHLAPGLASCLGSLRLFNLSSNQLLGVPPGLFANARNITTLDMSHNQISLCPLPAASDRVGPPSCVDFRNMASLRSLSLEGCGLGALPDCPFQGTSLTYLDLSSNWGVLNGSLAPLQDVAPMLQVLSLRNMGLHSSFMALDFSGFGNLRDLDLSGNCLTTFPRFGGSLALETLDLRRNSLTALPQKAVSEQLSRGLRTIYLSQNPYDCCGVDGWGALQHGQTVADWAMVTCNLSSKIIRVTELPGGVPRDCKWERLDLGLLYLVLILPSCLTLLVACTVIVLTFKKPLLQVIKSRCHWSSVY
Sequence of hLRRC33-proTGFβ1 complex on cells (P01137 30-390 limits assumed, chain 2 of 2): as the sequence (P01137 30-390 limits assumed, chain 2 of 2) above

[19] = target: hLTBP3-proTGFβ1 complex made by transfected cells (cell-based potency assay) (human, UniProt Q9NS15 44-1303; P01137 30-390); assay: cell-based or functional assay
[20] = target: T3, human LTBP3-proTGFβ1 complex; assay: BLI (Octet)
[21] = target: T4, human LTBP1-proTGFβ1 complex; assay: BLI (Octet)
[22] = target: T5, human GARP-proTGFβ1 complex; assay: BLI (Octet)
[23] = target: T2, human LRRC33-proTGFβ1 complex; assay: BLI (Octet)

T1 sequence (Q61810 other isoform, or with tags, fused parts or gaps limits assumed, chain 1 of 2): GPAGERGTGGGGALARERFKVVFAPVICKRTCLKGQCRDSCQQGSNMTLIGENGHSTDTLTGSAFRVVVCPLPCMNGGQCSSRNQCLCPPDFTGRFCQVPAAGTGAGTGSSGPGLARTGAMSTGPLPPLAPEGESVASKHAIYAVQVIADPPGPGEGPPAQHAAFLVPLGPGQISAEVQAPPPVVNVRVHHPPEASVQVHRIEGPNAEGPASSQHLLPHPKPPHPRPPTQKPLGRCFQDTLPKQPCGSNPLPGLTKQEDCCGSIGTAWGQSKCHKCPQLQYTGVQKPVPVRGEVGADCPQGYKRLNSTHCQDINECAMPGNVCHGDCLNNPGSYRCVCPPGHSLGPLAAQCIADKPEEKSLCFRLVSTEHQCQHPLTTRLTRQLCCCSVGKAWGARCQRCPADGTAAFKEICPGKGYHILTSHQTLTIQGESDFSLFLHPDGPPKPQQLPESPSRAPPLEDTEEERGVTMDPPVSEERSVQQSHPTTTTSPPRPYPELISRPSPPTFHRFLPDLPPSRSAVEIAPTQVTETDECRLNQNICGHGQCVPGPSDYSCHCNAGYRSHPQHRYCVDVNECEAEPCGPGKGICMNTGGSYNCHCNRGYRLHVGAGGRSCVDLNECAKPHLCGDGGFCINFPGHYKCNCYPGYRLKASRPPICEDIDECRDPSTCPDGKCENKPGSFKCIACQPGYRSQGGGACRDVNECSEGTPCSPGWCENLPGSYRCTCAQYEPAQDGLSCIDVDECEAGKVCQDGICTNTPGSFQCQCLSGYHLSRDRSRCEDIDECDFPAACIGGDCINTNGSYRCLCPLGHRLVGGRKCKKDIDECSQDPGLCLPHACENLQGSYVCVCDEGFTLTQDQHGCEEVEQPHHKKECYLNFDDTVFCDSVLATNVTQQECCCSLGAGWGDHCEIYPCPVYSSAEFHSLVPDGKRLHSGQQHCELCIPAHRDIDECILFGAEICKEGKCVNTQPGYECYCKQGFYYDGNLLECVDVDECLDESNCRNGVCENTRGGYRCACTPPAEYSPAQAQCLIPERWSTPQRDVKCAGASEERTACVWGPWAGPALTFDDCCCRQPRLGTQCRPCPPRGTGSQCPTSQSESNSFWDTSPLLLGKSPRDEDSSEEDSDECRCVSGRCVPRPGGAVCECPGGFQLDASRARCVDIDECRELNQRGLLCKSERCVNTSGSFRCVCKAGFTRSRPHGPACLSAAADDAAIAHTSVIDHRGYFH
T1 sequence (P04202 30-390 limits assumed, chain 2 of 2): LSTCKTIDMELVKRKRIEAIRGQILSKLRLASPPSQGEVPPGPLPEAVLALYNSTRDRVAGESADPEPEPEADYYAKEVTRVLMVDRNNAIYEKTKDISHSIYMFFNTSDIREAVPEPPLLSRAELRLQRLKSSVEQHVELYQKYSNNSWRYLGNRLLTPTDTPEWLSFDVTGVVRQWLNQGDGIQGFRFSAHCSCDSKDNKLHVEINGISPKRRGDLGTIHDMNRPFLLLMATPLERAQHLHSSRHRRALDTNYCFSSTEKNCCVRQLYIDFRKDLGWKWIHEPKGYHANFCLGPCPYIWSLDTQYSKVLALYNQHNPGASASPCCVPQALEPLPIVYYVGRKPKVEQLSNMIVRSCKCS

B1: Ab6 (antibody, human IgG4 S228P, kappa, V domains shown)
VH: EVQLVESGGGLVQPGGSLRLSCTASGFTFSSFSMDWVRQAPGKGLEWVSYISPSADTIYYADSVKGRFTISRDNAKNTLYLQMNSLRAEDTAVYYCARGVLDYGDMLMPWGQGTLVTVSS
VL: DIQMTQSPSSLSASVGDRVTITCQASQDITNYLNWYQQKPGKAPKLLIYDASNLETGVPSRFSGSGSGTDFTFTISSLQPEDIATYYCQQADNHPPWTFGGGTKVEIKR
[1]
  Kd: 0.022 nM
[2]
  IC50 (read off the curve): ~0.07 nM
[3]
  Kd: 0.029 nM
[4]
  Kd: 0.018 nM
[5]
  Kd: 0.027 nM
[6]
  Kd: 0.063 nM
[7]
  Kd: 0.021 nM
[8]
  Kd: 0.029 nM
[9]
  Kd: 0.039 nM
[10]
  Kd: 0.018 nM
[11]
  Kd: 0.027 nM
[12]
  Kd: 0.063 nM
[13]
  Kd: 0.048 nM
[14]
  Kd: 0.086 nM
[15]
  Kd: 0.035 nM
[16]
  Kd: 0.024 nM
[17]
  Kd: 0.093 nM
[18]
  IC50, reporter cell assay of TGFβ1 activation: 0.495 nM
[19]
  IC50, reporter cell assay of TGFβ1 activation: 0.821 nM
[20]
  Kd: 0.123 nM
[21]
  Kd: 0.207 nM
[22]
  Kd: 0.404 nM
[23]
  Kd: 0.336 nM
